Test results taken from the supplement of paper PMC10201428.
± gives the standard deviation of the averaged measurements.

B1: library; a variant is named by its letters at N, in order (parent)
chain: AATGTTGTTGATGCAACCATAAAGTGATATTTAATAATTATTTATAATCAGCAACTTAACCACAAAACAACCATATATTGATATNTCACAAAACAACCATAANTTGATATTTTTGTGAATCGAGTATTTCAGCAAAACTACTGCAGTAAGAA

Key:
[1] = variants of: B1; test: relative integration efficiency (T-LR orientation) vs wild-type transposon end (log2 (normalized fold change)); transposon end mutated: left end; higher = more efficient transposition; details: with VchCAST RNA-guided transposition machinery (E. coli BL21(DE3) host, lacZ target)
Method: (§1)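 Pooled, barcoded VchCAST (Tn6677) mini-transposon donor libraries; each variable transposon-end sequence sits in a fixed pDonor mini-transposon context (10-bp barcode and cargo not included). Left- or right-end libraries were co-transformed with pEffector (TniQ-Cascade, TnsABC, lacZ crRNA, T7, 0.1 mM IPTG) into E. coli BL21(DE3) and grown 18 h at 37 C. T-LR and T-RL junction amplicons were sequenced; output/input barcode fold change was normalised to the mean of four wild-type barcodes and log2-transformed. Two biological replicates; zero-count/undetected variants carry floor values (-10 / -15), censored here. Barcode uncoupling by PCR recombination adds noise.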

[2] = variants of: B1; test: relative integration efficiency (T-RL orientation) vs wild-type transposon end (log2 (normalized fold change)); transposon end mutated: left end; higher = more efficient transposition; details: with VchCAST RNA-guided transposition machinery (E. coli BL21(DE3) host, lacZ target)
Method: as §1

Variant: TA T76A A77G C87T A96C T112G T113C
- relative integration efficiency (log2) [1]: -0.4 ± 0.34
- relative integration efficiency (log2) [2]: -0.203 ± 0.3

Variant: CG A29T T30A T31A T32A
- relative integration efficiency (log2) [1]: -0.245 ± 0.11
- relative integration efficiency (log2) [2]: -0.49 ± 0.46

Variant: CA G24A T30A A96C T110A T113A
- relative integration efficiency (log2) [1]: -0.0456 ± 0.31
- relative integration efficiency (log2) [2]: -0.302 ± 0.28

Variant: CC A22T A23T G24C T76A A77T T78A A102T T104A
- relative integration efficiency (log2) [1]: -0.143 ± 0.92
- relative integration efficiency (log2) [2]: -0.196 ± 0.36

Variant: CG A23C G24T T25G G26T
- relative integration efficiency (log2) [1]: -1.99 ± 0.63
- relative integration efficiency (log2) [2]: -1.12 ± 0.49

Variant: CG A27T T28A
- relative integration efficiency (log2) [1]: -0.61 ± 0.9
- relative integration efficiency (log2) [2]: -0.441 ± 0.66

Variant: CG A16C
- relative integration efficiency (log2) [1]: -0.374 ± 0.29
- relative integration efficiency (log2) [2]: -0.26 ± 0.13

Variant: CG A16G
- relative integration efficiency (log2) [1]: -0.395 ± 0.6
- relative integration efficiency (log2) [2]: -0.205 ± 0.27

Variant: CG A16T
- relative integration efficiency (log2) [1]: -0.444 ± 0.68
- relative integration efficiency (log2) [2]: 0.0359 ± 0.064

Variant: CG A19T T20A A21T A22T
- relative integration efficiency (log2) [1]: -1.03 ± 0.48
- relative integration efficiency (log2) [2]: -1.21 ± 0.46

Variant: CG A22T A23T
- relative integration efficiency (log2) [1]: -0.158 ± 0.56
- relative integration efficiency (log2) [2]: -0.421 ± 0.27

Variant: TA G24A T30A A70C T76A T84A C87A A96C T112G T113C
- relative integration efficiency (log2) [1]: 0.302 ± 0.58
- relative integration efficiency (log2) [2]: 0.326 ± 0.17

Variant: CG A21C A75C A101C
- relative integration efficiency (log2) [1]: -3.75 ± 1.3
- relative integration efficiency (log2) [2]: -3.08 ± 0.72

Variant: CG A11T T12A G13C C14G
- relative integration efficiency (log2) [1]: -2.81 ± 1.2
- relative integration efficiency (log2) [2]: -0.558 ± 0.43

Variant: TG
- relative integration efficiency (log2) [1]: 0.322 ± 0.57
- relative integration efficiency (log2) [2]: 0.126 ± 0.046

Variant: CG A11T T12A
- relative integration efficiency (log2) [1]: -1.18 ± 0.28
- relative integration efficiency (log2) [2]: -0.325 ± 0.19

Variant: TA T76A T78A T84A C87A T104G T113A
- relative integration efficiency (log2) [1]: 0.188 ± 0.023
- relative integration efficiency (log2) [2]: -0.245 ± 0.21

Variant: CG A27T A81T A107T
- relative integration efficiency (log2) [1]: -2.46 ± 1.4
- relative integration efficiency (log2) [2]: -3.03 ± 1.3

Variant: TA T76A T78A T84A C87A A96C T112G T113C
- relative integration efficiency (log2) [1]: -0.207 ± 0.74
- relative integration efficiency (log2) [2]: 0.00846 ± 0.17

Variant: TA G24A T30A A70C T76A T86G A96C T110A T113A
- relative integration efficiency (log2) [1]: 0.0588 ± 0.23
- relative integration efficiency (log2) [2]: -0.265 ± 0.38

Variant: CG A2T T3A G4C T5A
- relative integration efficiency (log2) [1]: -0.131 ± 0.037
- relative integration efficiency (log2) [2]: -0.0191 ± 0.036

Variant: CG A37C T38G T39G A40C
- relative integration efficiency (log2) [1]: 0.21 ± 0.43
- relative integration efficiency (log2) [2]: -0.0337 ± 0.1

Variant: CG A1T A2T T3A G4T T5A
- relative integration efficiency (log2) [1]: -0.359 ± 0.037
- relative integration efficiency (log2) [2]: -0.373 ± 0.043

Variant: CC A101T A102T T104A
- relative integration efficiency (log2) [1]: -0.0376 ± 0.63
- relative integration efficiency (log2) [2]: -0.0794 ± 0.32

Variant: CC A21T A22T A23T G24C A75T T76A A77T T78A A101T A102T T104A
- relative integration efficiency (log2) [1]: -2.73 ± 1.6
- relative integration efficiency (log2) [2]: -2.03 ± 0.58

Variant: TA T76A A77G C87T A102T T111C T113C
- relative integration efficiency (log2) [1]: -0.406 ± 0.13
- relative integration efficiency (log2) [2]: -0.659 ± 0.28

Variant: CG A16T A70T A96T
- relative integration efficiency (log2) [1]: -1.37 ± 0.86
- relative integration efficiency (log2) [2]: -0.887 ± 0.43

Variant: TG A16C G24T T32G A33C A70C T76A T86G
- relative integration efficiency (log2) [1]: -0.468 ± 0.42
- relative integration efficiency (log2) [2]: -0.731 ± 0.36

Variant: CG A34C A36G T38C T42C A62G A65G A66C
- relative integration efficiency (log2) [1]: -0.874 ± 0.72
- relative integration efficiency (log2) [2]: -0.721 ± 0.33

Variant: TA G24A T30A T76A T78A T84A C87A T104G T113A
- relative integration efficiency (log2) [1]: 0.368 ± 0.38
- relative integration efficiency (log2) [2]: -0.186 ± 0.3

Variant: CG A37C T38G
- relative integration efficiency (log2) [1]: -0.172 ± 0.0031
- relative integration efficiency (log2) [2]: -0.236 ± 0.044

Variant: CG A29T T30A
- relative integration efficiency (log2) [1]: 0.489 ± 0.49
- relative integration efficiency (log2) [2]: 0.23 ± 0.29

Variant: CA T104G T113A
- relative integration efficiency (log2) [1]: -0.00439 ± 0.14
- relative integration efficiency (log2) [2]: -0.216 ± 0.19

Variant: CG A33T C87G T113A
- relative integration efficiency (log2) [1]: 0.02216 ± 0.00015
- relative integration efficiency (log2) [2]: -0.157 ± 0.2

Variant: TA G24A T30A T76A T78A T84A C87A T104A T110A T113A
- relative integration efficiency (log2) [1]: 0.184 ± 0.12
- relative integration efficiency (log2) [2]: 0.0385 ± 0.19

Variant: TA T76A A77G C87T A96C T110A T113A
- relative integration efficiency (log2) [1]: -0.108 ± 0.52
- relative integration efficiency (log2) [2]: -0.522 ± 0.3

Variant: TA G24A T30A T76A T78G C87A A96C T112G T113C
- relative integration efficiency (log2) [1]: 0.0921 ± 0.22
- relative integration efficiency (log2) [2]: 0.299 ± 0.056

Variant: CG A34C T35G
- relative integration efficiency (log2) [1]: 0.139 ± 0.22
- relative integration efficiency (log2) [2]: -0.109 ± 0.025

Variant: CG A40G T42G T43A A44G T45C A46G A47G T48A C49T G51A
- relative integration efficiency (log2) [1]: -1.07 ± 0.8
- relative integration efficiency (log2) [2]: -1.29 ± 0.32

Variant: TA G24A T30A T76A T78A T84A C87A A96C T110A T113A
- relative integration efficiency (log2) [1]: 0.0142 ± 0.25
- relative integration efficiency (log2) [2]: 0.0999 ± 0.18

Variant: CG A36T A37T T38A T39A
- relative integration efficiency (log2) [1]: 0.111 ± 0.38
- relative integration efficiency (log2) [2]: 0.0771 ± 0.077

Variant: CG A2C T3G
- relative integration efficiency (log2) [1]: 0.286 ± 0.049
- relative integration efficiency (log2) [2]: -0.0688 ± 0.0099

Variant: CG A16T C17G C18G A19T
- relative integration efficiency (log2) [1]: -1.18 ± 1.3
- relative integration efficiency (log2) [2]: -1.61 ± 0.74

Variant: CG A22C A23C G24T T25G
- relative integration efficiency (log2) [1]: -2.32 ± 0.92
- relative integration efficiency (log2) [2]: -2.89 ± 0.82

Variant: CG A40C
- relative integration efficiency (log2) [1]: -0.351 ± 0.61
- relative integration efficiency (log2) [2]: -0.0674 ± 0.033

Variant: CG A40G
- relative integration efficiency (log2) [1]: 0.0123 ± 0.78
- relative integration efficiency (log2) [2]: -0.273 ± 0.0094

Variant: CG A40T
- relative integration efficiency (log2) [1]: 0.577 ± 0.12
- relative integration efficiency (log2) [2]: 0.279 ± 0.021

Variant: CG A29T
- relative integration efficiency (log2) [1]: -0.0387 ± 0.14
- relative integration efficiency (log2) [2]: 0.26 ± 0.13

Variant: CG A29C
- relative integration efficiency (log2) [1]: -0.501 ± 0.28
- relative integration efficiency (log2) [2]: -0.333 ± 0.36

Variant: CG A29G
- relative integration efficiency (log2) [1]: -0.232 ± 0.74
- relative integration efficiency (log2) [2]: -0.238 ± 0.44

Variant: CG A33C A34C T35G A36C
- relative integration efficiency (log2) [1]: -0.094 ± 0.018
- relative integration efficiency (log2) [2]: -0.077 ± 0.049

Variant: CG A36G
- relative integration efficiency (log2) [1]: -0.222 ± 0.59
- relative integration efficiency (log2) [2]: -0.259 ± 0.23

Variant: CG A36T
- relative integration efficiency (log2) [1]: 0.0771 ± 0.068
- relative integration efficiency (log2) [2]: 0.0168 ± 0.042

Variant: CG A36C
- relative integration efficiency (log2) [1]: -0.699 ± 0.7
- relative integration efficiency (log2) [2]: -0.216 ± 0.15

Variant: AG
- relative integration efficiency (log2) [1]: 0.27 ± 0.094
- relative integration efficiency (log2) [2]: 0.00541 ± 0.045

Variant: TG A22T G24T T31C A33C T76A T78A T84A C87A
- relative integration efficiency (log2) [1]: -0.618 ± 0.17
- relative integration efficiency (log2) [2]: -0.5 ± 0.36

Variant: TG A23G G24T A33T T76A T78G C87A
- relative integration efficiency (log2) [1]: 0.632 ± 0.11
- relative integration efficiency (log2) [2]: 0.16 ± 0.09

Variant: CG A40C T41G T42G T43G
- relative integration efficiency (log2) [1]: -0.1 ± 0.062
- relative integration efficiency (log2) [2]: 0.139 ± 0.11
